Key:
HLA-A*01:01 = assay: IEDB peptide-MHC binding, purified MHC/direct/fluorescence; filed as Kd, often an IC50 or EC50 that approximates it; ≥ and ≤ were set here for values at or beyond the usual limits of such assays; conditions: source organism: Escherichia coli O157:H7
HLA-A*02:01 = assay: as above; conditions: source organism: Escherichia coli O157:H7
HLA-A*03:01 = assay: as above; conditions: source organism: Escherichia coli O157:H7
HLA-A*11:01 = assay: as above; conditions: source organism: Escherichia coli O157:H7
HLA-A*31:01 = assay: as above; conditions: source organism: Escherichia coli O157:H7
HLA-A*68:02 = assay: as above; conditions: source organism: Escherichia coli O157:H7
HLA-A*69:01 = assay: as above; conditions: source organism: Escherichia coli O157:H7
HLA-B*07:02 = assay: as above; conditions: source organism: Escherichia coli O157:H7
HLA-B*15:01 = assay: as above; conditions: source organism: Escherichia coli O157:H7
HLA-B*15:17 = assay: as above; conditions: source organism: Escherichia coli O157:H7
HLA-B*18:01 = assay: as above; conditions: source organism: Escherichia coli O157:H7
HLA-B*27:05 = assay: as above; conditions: source organism: Escherichia coli O157:H7
HLA-B*40:01 = assay: as above; conditions: source organism: Escherichia coli O157:H7
HLA-B*48:01 = assay: as above; conditions: source organism: Escherichia coli O157:H7
HLA-B*57:01 = assay: as above; conditions: source organism: Escherichia coli O157:H7
HLA-B*58:01 = assay: as above; conditions: source organism: Escherichia coli O157:H7
HLA-A*32:07 = assay: IEDB peptide-MHC binding, purified MHC/competitive/fluorescence; filed as Kd, often an IC50 or EC50 that approximates it; ≥ and ≤ were set here for values at or beyond the usual limits of such assays; conditions: source organism: Escherichia coli O139:H28 str. E24377A
HLA-B*15:42 = assay: as above; conditions: source organism: Escherichia coli O139:H28 str. E24377A
HLA-B*39:01 = assay: as above; conditions: source organism: Escherichia coli O139:H28 str. E24377A
HLA-B*40:13 = assay: as above; conditions: source organism: Escherichia coli O139:H28 str. E24377A
HLA-B*45:06 = assay: as above; conditions: source organism: Escherichia coli O139:H28 str. E24377A
HLA-B*83:01 = assay: as above; conditions: source organism: Escherichia coli O139:H28 str. E24377A

Sequence: REWGWRIPF
- Kd (HLA-A*01:01): ≥ 20 µM
- Kd (HLA-A*02:01): ≥ 20 µM
- Kd (HLA-A*03:01): ≥ 20 µM
- Kd (HLA-A*11:01): ≥ 20 µM
- Kd (HLA-A*31:01): ≥ 20 µM
- Kd (HLA-A*68:02): ≥ 20 µM
- Kd (HLA-A*69:01): ≥ 20 µM
- Kd (HLA-B*07:02): ≥ 20 µM
- Kd (HLA-B*15:01): 0.045 µM
- Kd (HLA-B*15:17): ≥ 20 µM
- Kd (HLA-B*18:01): ≤ 0.001 µM
- Kd (HLA-B*27:05): 0.591 µM
- Kd (HLA-B*40:01): ≤ 0.001 µM
- Kd (HLA-B*48:01): 0.149 µM
- Kd (HLA-B*57:01): ≥ 20 µM
- Kd (HLA-B*58:01): ≥ 20 µM
- Kd (HLA-A*32:07): 0.0135 µM
- Kd (HLA-B*15:42): ≥ 5 µM
- Kd (HLA-B*39:01): 0.135 µM
- Kd (HLA-B*40:13): 0.0611 µM
- Kd (HLA-B*45:06): ≥ 5 µM
- Kd (HLA-B*83:01): ≥ 5 µM
